Values quoted from earlier work in publication PMC6832444.

Target: PD-L2 (Homo sapiens) (UniProt Q9BQ51)
Chain of UniProt Q9BQ51 (Q9BQ51 20-220): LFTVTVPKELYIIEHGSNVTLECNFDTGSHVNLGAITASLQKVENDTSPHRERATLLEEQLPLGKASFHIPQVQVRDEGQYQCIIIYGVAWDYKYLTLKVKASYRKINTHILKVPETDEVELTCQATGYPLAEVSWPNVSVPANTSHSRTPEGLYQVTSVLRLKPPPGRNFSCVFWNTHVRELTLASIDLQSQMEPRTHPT

PD-1 (from UniProt Q15116)
Kd: 140 nM
